The text below walks through data of article PMC12407318.

This series in a line: sheep red blood cell hemolysis, OD542. The settings on record: glycan lost; control: WT Anxa2.

B1: Annexin A2 (Anxa2): S22A (protein)
parent chain: MSTVHEILCKLSLEGDHSTPPSAYGSVKPYTNFDAERDALNIETAVKTKGVDEVTIVNILTNRSNVQRQDIAFAYQRRTKKELPSALKSALSGHLETVILGLLKTPAQYDASELKASMKGLGTDEDSLIEIICSRTNQELQEINRVYKEMYKTDLEKDIISDTSGDFRKLMVALAKGRRAEDGSVIDYELIDQDARELYDAGVKRKGTDVPKWISIMTERSVCHLQKVFERYKSYSPYDMLESIKKEVKGDLENAFLNLVQCIQNKPLYFADRLYDSMKGKGTRDKVLIRIMVSRSEVDMLKIRSEFKRKYGKSLYYYIQQDTKGDYQKALLYLCGGDD
With B1, the “other: MBL-MASP complement activation” value was “decreases”.

B2: Annexin A2 (Anxa2): S26A (protein)
parent chain: MSTVHEILCKLSLEGDHSTPPSAYGSVKPYTNFDAERDALNIETAVKTKGVDEVTIVNILTNRSNVQRQDIAFAYQRRTKKELPSALKSALSGHLETVILGLLKTPAQYDASELKASMKGLGTDEDSLIEIICSRTNQELQEINRVYKEMYKTDLEKDIISDTSGDFRKLMVALAKGRRAEDGSVIDYELIDQDARELYDAGVKRKGTDVPKWISIMTERSVCHLQKVFERYKSYSPYDMLESIKKEVKGDLENAFLNLVQCIQNKPLYFADRLYDSMKGKGTRDKVLIRIMVSRSEVDMLKIRSEFKRKYGKSLYYYIQQDTKGDYQKALLYLCGGDD
For B2, the “other: MBL-MASP complement activation” value is “decreases”.
